Among the data in patent US20210063414A1, “METHODS FOR PREVENTING AND/OR TREATING BONE LOSS CONDITIONS BY MODULATING IRISIN” (Dana-Farber Cancer Institute, Inc., priority 2018, published 2021) are TMT signal-to-noise ratio values, retold here.

What all share (test): Crosslinking/co-immunoprecipitation/mass spectrometry (TMT quantitative proteomics) to identify irisin receptors
Type in all cases: binding

In test [1] the target is T1, MLO-Y4 cell surface proteins (Mus musculus, UniProt P39654).
T1 construct: endogenous in cells; host or cells: MLO-Y4
T1 sequence (P39654 1-663): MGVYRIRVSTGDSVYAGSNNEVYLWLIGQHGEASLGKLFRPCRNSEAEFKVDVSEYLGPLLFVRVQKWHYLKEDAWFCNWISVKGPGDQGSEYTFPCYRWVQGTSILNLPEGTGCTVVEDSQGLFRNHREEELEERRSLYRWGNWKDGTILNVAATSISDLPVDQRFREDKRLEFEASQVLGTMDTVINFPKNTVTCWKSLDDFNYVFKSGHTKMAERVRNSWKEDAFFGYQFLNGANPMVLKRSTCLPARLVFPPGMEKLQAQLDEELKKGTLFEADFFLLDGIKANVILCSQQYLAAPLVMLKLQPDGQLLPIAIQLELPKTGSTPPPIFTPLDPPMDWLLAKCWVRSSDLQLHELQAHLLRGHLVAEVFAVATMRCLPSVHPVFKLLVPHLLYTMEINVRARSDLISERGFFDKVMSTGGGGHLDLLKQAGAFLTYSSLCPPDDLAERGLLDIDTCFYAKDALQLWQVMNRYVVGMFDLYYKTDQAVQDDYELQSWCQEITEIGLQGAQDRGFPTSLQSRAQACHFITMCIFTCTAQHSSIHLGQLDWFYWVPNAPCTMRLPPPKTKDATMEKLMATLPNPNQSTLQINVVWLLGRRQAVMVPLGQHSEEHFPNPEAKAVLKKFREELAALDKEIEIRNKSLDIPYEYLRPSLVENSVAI
To be noted: co-precipitated protein Alox15 (LOX15_MOUSE). The method, boiled down:
(§1)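 Relative protein abundance came from 6-plex TMT MS3 quantitation on an Orbitrap Fusion Lumos, after in-gel trypsin digestion of Coomassie-stained SDS-PAGE lanes. Input was a Ni-NTA pulldown (250 mM imidazole elution) of lysates from murine MLO-Y4 cells. These cells were treated on ice with His-tagged irisin or adipsin (10 nM, 20 min) in serum-free medium, then crosslinked with 1.5 mM DTSSP for 30 min.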

Test [2] deals with T2, MLO-Y4 cell surface proteins (Mus musculus, UniProt Q8VCI5).
T2 construct: endogenous in cells; host or cells: MLO-Y4
T2 sequence (Q8VCI5 1-299): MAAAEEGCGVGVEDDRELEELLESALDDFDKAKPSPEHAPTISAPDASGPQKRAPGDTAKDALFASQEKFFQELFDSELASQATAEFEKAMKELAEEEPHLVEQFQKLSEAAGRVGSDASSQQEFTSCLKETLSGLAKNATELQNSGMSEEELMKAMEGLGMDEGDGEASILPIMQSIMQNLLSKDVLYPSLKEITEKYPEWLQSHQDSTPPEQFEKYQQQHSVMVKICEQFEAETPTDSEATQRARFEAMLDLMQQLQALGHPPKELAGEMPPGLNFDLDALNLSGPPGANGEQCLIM
To be noted: co-precipitated protein Pex19 (PEX19_MOUSE). The method, boiled down:
as §1

The target in test [3] is T3, MLO-Y4 cell surface proteins (Mus musculus, UniProt Q8VHN7).
T3 construct: endogenous in cells; host or cells: MLO-Y4
Conditions: co-precipitated protein Gpr98 (GPR98_MOUSE). The method, boiled down:
as §1

Turning to adipsin, the TMT signal-to-noise ratio in test [1] was 141.336; in test [2] it was 60.4801; in test [3], 618.49.
